We go through 9 molecules from patent US20180155451A1 (published 2018).

In assay [1] the target is T1, FcγRIIb extracellular domain with C-terminal His tag (human, UniProt P31994 43-217).
T1 construct: extracellular domain; Expressed in FreeStyle293 cells; analyte in the Biacore assay; also called FcgRIIb; 2b; not shown: His tag at the C terminus
T1 sequence (looked up): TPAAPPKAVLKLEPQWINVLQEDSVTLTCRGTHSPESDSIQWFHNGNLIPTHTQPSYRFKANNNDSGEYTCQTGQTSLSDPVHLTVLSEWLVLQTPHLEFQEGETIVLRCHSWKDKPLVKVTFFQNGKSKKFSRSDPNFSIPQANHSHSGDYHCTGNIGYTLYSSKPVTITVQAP
The assay can be described thus: SPR (Biacore), antibody captured on antigen-peptide chip, FcγR as analyte; relative binding.

Assay [2] concerns the target T2, FcγRIa extracellular domain with C-terminal His tag (human, UniProt P12314 16-292).
T2 construct: extracellular domain; Expressed in FreeStyle293 cells; analyte in the Biacore assay; also called FcgRI; 1a; not shown: His tag at the C terminus
Described as above.

For a further assay, the target named is T3, FcγRIIb (human, UniProt P31994 43-217).
T3 construct: extracellular domain; also called FcgRIIb; 2b; not shown: His tag at the C terminus
T3 sequence (looked up): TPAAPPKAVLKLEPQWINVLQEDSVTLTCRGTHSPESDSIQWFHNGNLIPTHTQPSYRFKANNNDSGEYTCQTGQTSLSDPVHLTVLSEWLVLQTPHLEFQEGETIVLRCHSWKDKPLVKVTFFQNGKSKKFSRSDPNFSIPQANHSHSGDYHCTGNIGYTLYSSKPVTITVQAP
Briefly: SPR (Biacore), captured antibody, soluble FcγR; relative to GpH7-A5/GpH7-B3/GpL16-k0.

Assay [3] concerns the target T4, FcγRIa (human, UniProt P12314 16-292).
T4 construct: extracellular domain; also called FcgRI; 1a; not shown: His tag at the C terminus
The assay is described as above.

For assay [4], the target named is T4, FcγRIa. The assay can be described thus: SPR; He/Con_1a divided by He/Con_2b (FcγRIIb as reference). For orientation: SPR reads the build-up and loss of mass on a sensor chip optically.

T4 sequence (P12314 16-292): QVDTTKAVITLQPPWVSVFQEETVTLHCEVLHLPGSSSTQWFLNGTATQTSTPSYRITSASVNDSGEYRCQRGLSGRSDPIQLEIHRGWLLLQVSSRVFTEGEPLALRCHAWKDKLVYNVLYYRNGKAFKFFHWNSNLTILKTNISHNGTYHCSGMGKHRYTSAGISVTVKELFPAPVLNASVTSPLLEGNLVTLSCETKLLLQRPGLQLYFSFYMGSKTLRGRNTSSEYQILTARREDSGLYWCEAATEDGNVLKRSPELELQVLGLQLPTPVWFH
T2 sequence (P12314 16-292): as above

B1: GpH7-A5/GpH7-B3 variant E269_03V/GpL16-k0 (He Ab) (antibody, human IgG1, kappa)
heavy 1: not shown
heavy 2: not shown
light: DIVMTQSPLSLPVTPGEPASISCQASESLVHSNRNTYLHWYLQKPGQSPQLLIYKVSNRFSGVPDRFSGSGSGTDFTLKISRVEAEDVGVYYCSQNTHVPPTFGQGTKVEIERTVAAPSVFIFPPSDEQLKSGTASVVCLLNNFYPREAKVQWKVDNALQSGNSQESVTEQDSKDSTYSLSSTLTLSKADYEKHKVYACEVTHQGLSSPVTKSFNRGEC
notes: Heterodimerized anti-glypican-3 IgG1; the mutation stands in the GpH7-B3 chain only
With B1, in assay [1], the He/Con_2b was 45.1 % of GpH7-A5/GpH7-B3/GpL16-k0 (=100). For the same molecule, in assay [2], the He/Con_1a is 103 % of GpH7-A5/GpH7-B3/GpL16-k0 (=100).

B2: GpH7-A5/GpH7-B3 variant V266_18N/GpL16-k0 (antibody, human IgG1, kappa)
heavy 1: not shown
heavy 2: not shown
light: DIVMTQSPLSLPVTPGEPASISCQASESLVHSNRNTYLHWYLQKPGQSPQLLIYKVSNRFSGVPDRFSGSGSGTDFTLKISRVEAEDVGVYYCSQNTHVPPTFGQGTKVEIERTVAAPSVFIFPPSDEQLKSGTASVVCLLNNFYPREAKVQWKVDNALQSGNSQESVTEQDSKDSTYSLSSTLTLSKADYEKHKVYACEVTHQGLSSPVTKSFNRGEC
notes: He Ab: mutation only in the GpH7-B3 H chain; EU numbering; also called He Ab
As for B2, the He/Con_2b with FcγRIIb was 69.7 relative, HeCon Ab = 100. The He/Con_1a in the assay with FcγRIa [3] is 99.5 relative, HeCon Ab = 100. For the same molecule, in the assay with FcγRIa [4], the “Ia/IIb He_1a/2b” value was 1.43 ratio.

B3: GpH7-A5/GpH7-B3 variant E269_06M/GpL16-k0 (He Ab) (antibody, human IgG1, kappa)
heavy 1: not shown
heavy 2: not shown
light: DIVMTQSPLSLPVTPGEPASISCQASESLVHSNRNTYLHWYLQKPGQSPQLLIYKVSNRFSGVPDRFSGSGSGTDFTLKISRVEAEDVGVYYCSQNTHVPPTFGQGTKVEIERTVAAPSVFIFPPSDEQLKSGTASVVCLLNNFYPREAKVQWKVDNALQSGNSQESVTEQDSKDSTYSLSSTLTLSKADYEKHKVYACEVTHQGLSSPVTKSFNRGEC
notes: as for B1
Turning to B3, in assay [1], the He/Con_2b was 46.7 % of GpH7-A5/GpH7-B3/GpL16-k0 (=100). Further, the He/Con_1a in assay [2] was 104 % of GpH7-A5/GpH7-B3/GpL16-k0 (=100).

B4: GpH7-A5/GpH7-B3 variant V266_05P/GpL16-k0 (antibody, human IgG1, kappa)
heavy 1: not shown
heavy 2: not shown
light: DIVMTQSPLSLPVTPGEPASISCQASESLVHSNRNTYLHWYLQKPGQSPQLLIYKVSNRFSGVPDRFSGSGSGTDFTLKISRVEAEDVGVYYCSQNTHVPPTFGQGTKVEIERTVAAPSVFIFPPSDEQLKSGTASVVCLLNNFYPREAKVQWKVDNALQSGNSQESVTEQDSKDSTYSLSSTLTLSKADYEKHKVYACEVTHQGLSSPVTKSFNRGEC
notes: as for B2
Take B4: the He/Con_2b with FcγRIIb is 0.4 relative, HeCon Ab = 100. For the same molecule, in the assay with FcγRIa [3], the He/Con_1a was 71.9 relative, HeCon Ab = 100. Moreover, the “Ia/IIb He_1a/2b” value in the assay with FcγRIa [4] amounted to 205 ratio.

B5: GpH7-A5/GpH7-B3 variant V266_04F/GpL16-k0 (antibody, human IgG1, kappa)
heavy 1: not shown
heavy 2: not shown
light: DIVMTQSPLSLPVTPGEPASISCQASESLVHSNRNTYLHWYLQKPGQSPQLLIYKVSNRFSGVPDRFSGSGSGTDFTLKISRVEAEDVGVYYCSQNTHVPPTFGQGTKVEIERTVAAPSVFIFPPSDEQLKSGTASVVCLLNNFYPREAKVQWKVDNALQSGNSQESVTEQDSKDSTYSLSSTLTLSKADYEKHKVYACEVTHQGLSSPVTKSFNRGEC
notes: as for B2
Turning to B5, in the assay with FcγRIIb, the He/Con_2b is 57.6 relative, HeCon Ab = 100. The He/Con_1a in the assay with FcγRIa [3] is 96.7 relative, HeCon Ab = 100. For the same molecule, in the assay with FcγRIa [4], the “Ia/IIb He_1a/2b” value came out at 1.68 ratio.

B6: GpH7-A5/GpH7-B3 variant V266_15Y/GpL16-k0 (antibody, human IgG1, kappa)
heavy 1: not shown
heavy 2: not shown
light: DIVMTQSPLSLPVTPGEPASISCQASESLVHSNRNTYLHWYLQKPGQSPQLLIYKVSNRFSGVPDRFSGSGSGTDFTLKISRVEAEDVGVYYCSQNTHVPPTFGQGTKVEIERTVAAPSVFIFPPSDEQLKSGTASVVCLLNNFYPREAKVQWKVDNALQSGNSQESVTEQDSKDSTYSLSSTLTLSKADYEKHKVYACEVTHQGLSSPVTKSFNRGEC
notes: as for B2
In the case of B6, in the assay with FcγRIIb, the He/Con_2b is 49.4 relative, HeCon Ab = 100. In the assay with FcγRIa [3], the He/Con_1a was 93.3 relative, HeCon Ab = 100. Further, in the assay with FcγRIa [4], the “Ia/IIb He_1a/2b” value worked out at 1.89 ratio.

B7: GpH7-A5/GpH7-B3 variant V266_20W/GpL16-k0 (antibody, human IgG1, kappa)
heavy 1: not shown
heavy 2: not shown
light: DIVMTQSPLSLPVTPGEPASISCQASESLVHSNRNTYLHWYLQKPGQSPQLLIYKVSNRFSGVPDRFSGSGSGTDFTLKISRVEAEDVGVYYCSQNTHVPPTFGQGTKVEIERTVAAPSVFIFPPSDEQLKSGTASVVCLLNNFYPREAKVQWKVDNALQSGNSQESVTEQDSKDSTYSLSSTLTLSKADYEKHKVYACEVTHQGLSSPVTKSFNRGEC
notes: as for B2
Turning to B7, the He/Con_2b with FcγRIIb was 71.9 relative, HeCon Ab = 100. Also, the He/Con_1a with FcγRIa [3] was 91.4 relative, HeCon Ab = 100. Also, the “Ia/IIb He_1a/2b” value with FcγRIa [4] was 1.27 ratio.

B8: GpH7-A5/GpH7-B3 variant V266_13S/GpL16-k0 (antibody, human IgG1, kappa)
heavy 1: not shown
heavy 2: not shown
light: DIVMTQSPLSLPVTPGEPASISCQASESLVHSNRNTYLHWYLQKPGQSPQLLIYKVSNRFSGVPDRFSGSGSGTDFTLKISRVEAEDVGVYYCSQNTHVPPTFGQGTKVEIERTVAAPSVFIFPPSDEQLKSGTASVVCLLNNFYPREAKVQWKVDNALQSGNSQESVTEQDSKDSTYSLSSTLTLSKADYEKHKVYACEVTHQGLSSPVTKSFNRGEC
notes: as for B2
For the molecule B8, the He/Con_2b with FcγRIIb was 54.4 relative, HeCon Ab = 100. In addition, the He/Con_1a with FcγRIa [3] was 90.6 relative, HeCon Ab = 100. Further, in the assay with FcγRIa [4], the “Ia/IIb He_1a/2b” value came out at 1.67 ratio.

B9: GpH7-A5/GpH7-B3 variant V266_09D/GpL16-k0 (antibody, human IgG1, kappa)
heavy 1: not shown
heavy 2: not shown
light: DIVMTQSPLSLPVTPGEPASISCQASESLVHSNRNTYLHWYLQKPGQSPQLLIYKVSNRFSGVPDRFSGSGSGTDFTLKISRVEAEDVGVYYCSQNTHVPPTFGQGTKVEIERTVAAPSVFIFPPSDEQLKSGTASVVCLLNNFYPREAKVQWKVDNALQSGNSQESVTEQDSKDSTYSLSSTLTLSKADYEKHKVYACEVTHQGLSSPVTKSFNRGEC
notes: as for B2
On to B9, for which the He/Con_2b with FcγRIIb is 10.1 relative, HeCon Ab = 100. The He/Con_1a with FcγRIa [3] was 79.3 relative, HeCon Ab = 100. The “Ia/IIb He_1a/2b” value in the assay with FcγRIa [4] stood at 7.88 ratio.
